# Source: FireProtDB
# Where “and” joins values, the source holds several entries; their conditions need not be identical. Equal values may be shown once.
# B1: Dihydrofolate reductase type 2 wild type, P00383 (protein)
# chain: MERSSNEVSNPVAGNFVFPSNATFGMGDRVRKKSGAAWQGQIVGWYCTNLTPEGYAVESEAHPGSVQIYPVAALERIN
# B2: Ribose import binding protein RbsB wild type, P02925 (protein)
# chain: MNMKKLATLVSAVALSATVSANAMAKDTIALVVSTLNNPFFVSLKDGAQKEADKLGYNLVVLDSQNNPAKELANVQDLTVRGTKILLINPTDSDAVGNAVKMANQANIPVITLDRQATKGEVVSHIASDNVLGGKIAGDYIAKKAGEGAKVIELQGIAGTSAARERGEGFQQAVAAHKFNVLASQPADFDRIKGLNVMQNLLTAHPDVQAVFAQNDEMALGALRALQTAGKSDVMVVGFDGTPDGEKAVNDGKLAATIAQLPDQIGAKGVETADKVLKGEKVQAKYPVDLKLVVKQ
# B3: Apolipoprotein A-I wild type, P08250 (protein)
# chain: MRGVLVTLAVLFLTGTQARSFWQHDEPQTPLDRIRDMVDVYLETVKASGKDAIAQFESSAVGKQLDLKLADNLDTLSAAAAKLREDMAPYYKEVREMWLKDTEALRAELTKDLEEVKEKIRPFLDQFSAKWTEELEQYRQRLTPVAQELKELTKQKVELMQAKLTPVAEEARDRLRGHVEELRKNLAPYSDELRQKLSQKLEEIREKGIPQASEYQAKVMEQLSNLREKMTPLVQEFRERLTPYAENLKNRLISFLDELQKSVA
# B4: Cutinase 1 wild type, P00590 (protein)
# chain: MKFFALTTLLAATASALPTSNPAQELEARQLGRTTRDDLINGNSASCRDVIFIYARGSTETGNLGTLGPSIASNLESAFGKDGVWIQGVGGAYRATLGDNALPRGTSSAAIREMLGLFQQANTKCPDATLIAGGYSQGAALAAASIEDLDSAIRDKIAGTVLFGYTKNLQNRGRIPNYPADRTKVFCNTGDLVCTGSLIVAAPHLAYGPDARGPAPEFLIEKVRAVRGSA
# B5: Head completion protein wild type, P68660 (protein)
# chain: MTRQEELAAARAALHDLMTGKRVATVQKDGRRVEFTATSVSDLKKYIAELEVQTGMTQRRRGPAGFYV
# B6: Colicin-A wild type, Q47108 (protein)
# chain: VAEKAKDERELLEKTSELIAGMGDKIGEHLGDKYKAIAKDIADNIKNFQGKTIRSFDDAMASLNKITANPAMKINKADRDALVNAWKHVDAQDMANKLGNLSKAFKVADVVMKVEKVREKSIEGYETGNWGPLMLEVESWVLSGIASSVALGIFSATLGAYALSLGVPAIAVGIAGILLAAVVGALIDDKFADALNNEIIRPAH
# B7: Peptide deformylase wild type, P0A6K3 (protein)
# chain: MSVLQVLHIPDERLRKVAKPVEEVNAEIQRIVDDMFETMYAEEGIGLAATQVDIHQRIIVIDVSENRDERLVLINPELLEKSGETGIEEGCLSIPEQRALVPRAEKVKIRALDRDGKPFELEADGLLAICIQHEMDHLVGKLFMDYLSPLKQQRIRQKVEKLDRLKARA
# B8: Aspartate carbamoyltransferase catalytic subunit wild type, P0A786 (protein)
# chain: MANPLYQKHIISINDLSRDDLNLVLATAAKLKANPQPELLKHKVIASCFFEASTRTRLSFETSMHRLGASVVGFSDSANTSLGKKGETLADTISVISTYVDAIVMRHPQEGAARLATEFSGNVPVLNAGDGSNQHPTQTLLDLFTIQETQGRLDNLHVAMVGDLKYGRTVHSLTQALAKFDGNRFYFIAPDALAMPQYILDMLDEKGIAWSLHSSIEEVMAEVDILYMTRVQKERLDPSEYANVKAQFVLRASDLHNAKANMKVLHPLPRVDEIATDVDKTPHAWYFQQAGNGIFARQALLALVLNRDLVL
# B9: Glutamine-binding periplasmic protein wild type, P0AEQ3 (protein)
# chain: MKSVLKVSLAALTLAFAVSSHAADKKLVVATDTAFVPFEFKQGDKYVGFDVDLWAAIAKELKLDYELKPMDFSGIIPALQTKNVDLALAGITITDERKKAIDFSDGYYKSGLLVMVKANNNDVKSVKDLDGKVVAVKSGTGSVDYAKANIKTKDLRQFPNIDNAYMELGTNRADAVLHDTPNILYFIKTAGNGQFKAVGDSLEAQQYGIAFPKGSDELRDKVNGALKTLRENGTYNEIYKKWFGTEPK
# B10: ATP-dependent 6-phosphofructokinase isozyme 2 wild type, P06999 (protein)
# chain: MVRIYTLTLAPSLDSATITPQIYPEGKLRCTAPVFEPGGGGINVARAIAHLGGSATAIFPAGGATGEHLVSLLADENVPVATVEAKDWTRQNLHVHVEASGEQYRFVMPGAALNEDEFRQLEEQVLEIESGAILVISGSLPPGVKLEKLTQLISAAQKQGIRCIVDSSGEALSAALAIGNIELVKPNQKELSALVNRELTQPDDVRKAAQEIVNSGKAKRVVVSLGPQGALGVDSENCIQVVPPPVKSQSTVGAGDSMVGAMTLKLAENASLEEMVRFGVAAGSAATLNQGTRLCSHDDTQKIYAYLSR
# Conditions: whole UniProt chain shown
# [1] = Escherichia coli, pH 5, 23 °C, Urea, DSC, Acetic acid/MES/Tris 50 mM/50 mM/100 mM/, reversible: yes
# [2] = Escherichia coli, pH 8, Thermal, DSC, Tris/MES/Acetic acid 100 mM/50 mM/50 mM/, reversible: yes
# [3] = Gallus gallus, pH 7.4, 25 °C, GdnHCl, CD, Tris 50 mM, KCl 100 mM, reversible: yes
# [4] = Fusarium vanettenii, pH 9, Thermal, DSC, Tris 10 mM, NaCl 40 mM, reversible: no
# [5] = Escherichia coli (strain K12), pH 7.5, 20 °C, GdnHCl, CD, HEPES 5 mM, NiCl2 5 mM, reversible: Yes
protein,measurement,setting,value
B1,denaturant m value,[1],1.46 kcal/mol/M
same,denaturant midpoint (higher = more stable),[1],3.63 M
same,unfolding free energy,[1],13.3 kcal/mol
same,unfolding free energy,"Escherichia coli, pH 5, 30 °C, GdnHCl, CD, Acetic acid/MES/Tris 50 mM/50 mM/100 mM/, reversible: yes",15.5 kcal/mol
same,unfolding free energy,"Escherichia coli, pH 5, 30 °C, GdnHCl, Fluorescence, Acetic acid/MES/Tris 50 mM/50 mM/100 mM/, reversible: yes",13.5 kcal/mol
same,unfolding free energy,"Escherichia coli, pH 8, 30 °C, GdnHCl, CD, Tris/MES/Acetic acid 100 mM/50 mM/50 mM/, reversible: yes",9.63 kcal/mol
same,Tm,[2],71 °C
same,unfolding enthalpy (calorimetric),[2],307 kcal/mol
B2,unfolding free energy,"Escherichia coli (strain K12), pH 7.7, 25 °C, GdnHCl, Fluorescence, HEPES 10 mM, reversible: yes",5.1 kcal/mol
B3,unfolding free energy,"Gallus gallus, pH 7.4, 20 °C, GdnHCl, Fluorescence, Tris 50 mM, KCl 100 mM, reversible: yes",2.93 kcal/mol
same,denaturant m value,[3],2.78 kcal/mol/M
same,unfolding free energy,[3],1.86 kcal/mol
B4,Tm,"Fusarium vanettenii, pH 4.5, Thermal, Fluorescence, Sodium acetate 25 mM, reversible: Yes",75 °C
same,unfolding enthalpy (calorimetric),[4],104 kcal/mol and 92.3 kcal/mol
same,unfolding enthalpy (van 't Hoff),[4],212 kcal/mol and 122 kcal/mol
B5,unfolding free energy,"Escherichia phage lambda, pH 8, 25 °C, Urea, CD, Tris 10 mM, reversible: yes",2.91 kcal/mol and 3.27 kcal/mol
same,Tm,"Escherichia phage lambda, pH 8, Thermal, CD, Tris 10 mM, reversible: yes",71.6 °C and 71.8 °C
B6,Tm,"Escherichia coli, pH 3, Thermal, DSC, Na2HPO4-citrate 30 mM, reversible: no",39 °C
same,Tm,"Escherichia coli, pH 3.5, Thermal, DSC, Na2HPO4-citrate 30 mM, reversible: no",49 °C
same,Tm,"Escherichia coli, pH 4, Thermal, DSC, Na2HPO4-citrate 30 mM, reversible: no",56 °C
same,Tm,"Escherichia coli, pH 7, Thermal, DSC, Na2HPO4-citrate 30 mM, reversible: no",69 °C
same,Tm,"Escherichia coli, pH 8, Thermal, DSC, Na2HPO4-citrate 30 mM, reversible: no",67 °C
B7,denaturant m value,[5],1.8 kcal/mol/M
same,unfolding free energy,[5],4.4 kcal/mol
B8,unfolding free energy,"Escherichia coli (strain K12), pH 8.3, 7.5 °C, Urea, Absorbance, HEPES 0.1 M, reversible: yes",2 kcal/mol
B9,Tm,"Escherichia coli (strain K12), pH 8.3, Thermal, Absorbance, Tris-HCl 10 mM",63.1 °C and 66.2 °C
B10,unfolding free energy,"Escherichia coli (strain K12), pH 7.8, 20 °C, GdnHCl, Activity, Tris 50 mM, Magnesiun chloride 5 mM, reversible: Yes",12.1 kcal/mol
same,unfolding free energy,"Escherichia coli (strain K12), pH 7.8, 20 °C, GdnHCl, CD, Tris 50 mM, Magnesiun chloride 5 mM, reversible: Yes",12.2 kcal/mol
same,unfolding free energy,"Escherichia coli (strain K12), pH 7.8, 20 °C, GdnHCl, Fluorescence, Tris 50 mM, Magnesiun chloride 5 mM, reversible: Yes",11.9 kcal/mol
